{
  "source": "patent US20040180399A1",
  "about": "(Pfizer, published 2004)",
  "binders": {"B1": {"name": "IL-22BP-Ig (Fc fusion)", "chain": "TQSTHESLKPQRVQFQSRNFHNILQWQPGRALTGNSSVYFVQYKIYGQRQWKNKEDCWGTQELSCDLTSETSDIQEPYYGRVRAASAGSYSEWSMTPRFTPWWETKIDPPVMNITQVNGSLLVILHAPNLPYRYQKEKNVSIEDYYELLYRVFIINNSLEKEQKVYEGAHRAVEIEALTPHSSYCVVAEIYQPMLDRRSQRSEERCVEIP", "notes": "Used as supernatant of transiently transfected HEK293 cells; it may begin with Met or Met Met; also called IL-TIFR-Ig; IL-22BP fusion protein; not shown: hinge, CH2 and CH3 domains of murine IgG3 isotype heavy chain, amplified from IgG3 anti-TNP hybridoma C3110"}, "B2": {"name": "IL-22R-Ig (Fc fusion, UniProt Q8N6P7 16-228, looked up)", "chain": "HAPEDPSDLLQHVKFQSSNFENILTWDSGPEGTPDTVYSIEYKTYGERDWVAKKGCQRITRKSCNLTVETGNLTELYYARVTAVSAGGRSATKMTDRFSSLQHTTLKPPDVTCISKVRSIQMIVHPTPTPIRAGDGHRLTLEDIFHDLFYHLELQVNRTYQMHLGGKQREYEFFGLTPDTEFLGTIMICVPTWAKESAPYMCRVKTLPDRTWT", "notes": "Used as supernatant of transiently transfected HEK293 cells; also called fusion protein of IL-22R and the IgG3 Fc fragment; not shown: IgG3 Fc fragment, made 'in similar fashion' to the murine IgG3 hinge-CH2-CH3 of IL-TIFR-Ig"}, "B3": {"name": "recombinant human IL-TIF/IL-22 (ligand, UniProt Q9GZX6 34-179, looked up)", "chain": "APISSHCRLDKSNFQQPYITNRTFMLAKEASLADNNTDVRLIGEKLFHGVSMSERCYLMKQVLNFTLEEVLFPQSDRFQPYMQEVVPFLARLSNRLSTCHIEGDDLHIQRNVQKLKDTVKKLGESGEIKAIGELDLLFMSLRNACI"}},
  "key": {"[1]": {"biological_target": "T1, bovine serum albumin (bovine, UniProt P02769 25-607)", "T1 construct": "Negative control coating in the ELISA; also called BSA", "T1 sequence (P02769 25-607 limits assumed)": "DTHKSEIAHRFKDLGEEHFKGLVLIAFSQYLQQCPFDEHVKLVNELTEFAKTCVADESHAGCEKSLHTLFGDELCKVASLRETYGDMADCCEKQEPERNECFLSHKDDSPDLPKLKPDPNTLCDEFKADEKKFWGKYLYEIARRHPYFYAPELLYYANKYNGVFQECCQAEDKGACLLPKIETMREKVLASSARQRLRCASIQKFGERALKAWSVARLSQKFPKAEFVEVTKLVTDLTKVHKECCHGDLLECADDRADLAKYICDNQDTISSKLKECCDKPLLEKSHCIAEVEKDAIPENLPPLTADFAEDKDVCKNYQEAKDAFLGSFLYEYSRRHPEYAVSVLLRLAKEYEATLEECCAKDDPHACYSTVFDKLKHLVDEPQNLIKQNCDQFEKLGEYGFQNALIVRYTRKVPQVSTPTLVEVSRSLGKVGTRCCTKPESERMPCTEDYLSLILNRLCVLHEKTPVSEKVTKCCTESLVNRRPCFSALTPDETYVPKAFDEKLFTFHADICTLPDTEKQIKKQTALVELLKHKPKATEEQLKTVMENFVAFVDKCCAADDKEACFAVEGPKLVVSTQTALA", "assay": "ELISA, coated plate, HEK293 supernatant, anti-Ig peroxidase detection", "procedure": "(§1) Assays were then carried out by coating polystyrene plates with either 0.083 mg/ml of recombinant human IL-TIF/IL-22, or […] bovine serum albumin, in 20 mm Tris. Glycine buffer containing 30 mm NaCl, pH 9.2, overnight, at 4° C. Following washing in PBS buffer plus Tween 20 (10⁻⁴) plates were blocked with PBS plus 1% BSA for two hours, and then 50 μl of supernatant from transiently transfected HEK293 cells was added. Plates were then incubated for 2 hours, at 37° C. Any bound fusion protein was detected, using murine anti-Ig polyclonal antibodies coupled to peroxidase. Detection was carried out using the peroxidase substrate “TMB”, or (3,3′,5, 5′-tetramethylbenzidine), and stopped by 20 μl H₂S0_{4.}"}, "[2]": {"biological_target": "B1", "assay": "ELISA, IL-TIF/IL-22 coated on plate, HEK293 supernatant, anti-Ig peroxidase detection", "procedure": "as §1"}},
  "data": [
    {"binder": "B1", "values": [
      {"measurement": "binding result", "setting": "[1]", "value": "no binding"}
    ]},
    {"binder": "B2", "values": [
      {"measurement": "binding result", "setting": "[1]", "value": "no binding"}
    ]},
    {"binder": "B3", "values": [
      {"measurement": "binding result", "setting": "[2]", "value": "binds"}
    ]}
  ]
}
